Drawing on paper PMC8553427, this text covers binding for one sequence.

In this series the target is T1, AtMYB5trunc (truncated MYB5, MYB DNA-binding domain) (Arabidopsis thaliana (Col)) (UniProt Q38850).
T1 sequence: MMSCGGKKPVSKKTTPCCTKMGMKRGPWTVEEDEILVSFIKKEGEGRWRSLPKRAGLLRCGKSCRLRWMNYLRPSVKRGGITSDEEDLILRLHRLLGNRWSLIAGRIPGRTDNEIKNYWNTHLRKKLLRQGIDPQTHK
The series is described as follows: EMSA. As to conditions: 20 mM NaCl, 5 mM MgCl2, 20 mM Tris pH 8.0, 10% glycerol, 0.5 mM EDTA, 0.5 mM DTT, poly d(I-C); temperature not stated.

On to “CGATGGTCACTTTCCTCATACTCTTTCTATATTGACTGTTAGTTTCTGGTCATTCTCGAAACAAACACTACATTGACTGTTAGATTTCTCATTTCAACCAAAGTAAGTAATAAATTCTGAACC (double strand) [ABE4 promoter probe]”, for which the binding result was “binds more weakly”.
